According to patent US20260167699A1 (Chugai, published 2026):

Target: T1, FcγRIIIa (human, UniProt P08637 17-208)
T1 construct: extracellular domain; also called 3a; FcγRIIIa extracellular domain
Assay: SPR (Biacore);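 further: antibody variants captured on an SPR sensor chip, with FcγRIIIa passed over as analyte in HBS-EP+ buffer at 25 °C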

T1 sequence (P08637 other isoform, or with tags, fused parts or gaps): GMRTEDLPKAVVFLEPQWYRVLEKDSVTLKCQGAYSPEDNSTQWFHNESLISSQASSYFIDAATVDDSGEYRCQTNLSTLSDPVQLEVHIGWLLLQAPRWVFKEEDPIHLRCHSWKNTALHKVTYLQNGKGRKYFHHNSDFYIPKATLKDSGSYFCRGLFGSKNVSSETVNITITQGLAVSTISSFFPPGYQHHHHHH

Binder | He/Con 3a
GpH7-A5/GpH7-B3 variant H268_12R/GpL16-k0 (antibody, human IgG1, kappa, copies: 1 + 1 + 2) heavy 1: not shown heavy 2: not shown light: DIVMTQSPLSLPVTPGEPASISCQASESLVHSNRNTYLHWYLQKPGQSPQLLIYKVSNRFSGVPDRFSGSGSGTDFTLKISRVEAEDVGVYYCSQNTHVPPTFGQGTKVEIERTVAAPSVFIFPPSDEQLKSGTASVVCLLNNFYPREAKVQWKVDNALQSGNSQESVTEQDSKDSTYSLSSTLTLSKADYEKHKVYACEVTHQGLSSPVTKSFNRGEC | 76 % of GpH7-A5/GpH7-B3/GpL16-k0
GpH7-A5/GpH7-B3 variant H268_13S/GpL16-k0 (antibody, human IgG1, kappa, copies: 1 + 1 + 2) heavy 1: not shown heavy 2: not shown light: DIVMTQSPLSLPVTPGEPASISCQASESLVHSNRNTYLHWYLQKPGQSPQLLIYKVSNRFSGVPDRFSGSGSGTDFTLKISRVEAEDVGVYYCSQNTHVPPTFGQGTKVEIERTVAAPSVFIFPPSDEQLKSGTASVVCLLNNFYPREAKVQWKVDNALQSGNSQESVTEQDSKDSTYSLSSTLTLSKADYEKHKVYACEVTHQGLSSPVTKSFNRGEC | 121 % of GpH7-A5/GpH7-B3/GpL16-k0
GpH7-A5/GpH7-B3 variant H268_09D/GpL16-k0 (antibody, human IgG1, kappa, copies: 1 + 1 + 2) heavy 1: not shown heavy 2: not shown light: DIVMTQSPLSLPVTPGEPASISCQASESLVHSNRNTYLHWYLQKPGQSPQLLIYKVSNRFSGVPDRFSGSGSGTDFTLKISRVEAEDVGVYYCSQNTHVPPTFGQGTKVEIERTVAAPSVFIFPPSDEQLKSGTASVVCLLNNFYPREAKVQWKVDNALQSGNSQESVTEQDSKDSTYSLSSTLTLSKADYEKHKVYACEVTHQGLSSPVTKSFNRGEC | 195 % of GpH7-A5/GpH7-B3/GpL16-k0
GpH7-A5/GpH7-B3 variant H268_11K/GpL16-k0 (antibody, human IgG1, kappa, copies: 1 + 1 + 2) heavy 1: not shown heavy 2: not shown light: DIVMTQSPLSLPVTPGEPASISCQASESLVHSNRNTYLHWYLQKPGQSPQLLIYKVSNRFSGVPDRFSGSGSGTDFTLKISRVEAEDVGVYYCSQNTHVPPTFGQGTKVEIERTVAAPSVFIFPPSDEQLKSGTASVVCLLNNFYPREAKVQWKVDNALQSGNSQESVTEQDSKDSTYSLSSTLTLSKADYEKHKVYACEVTHQGLSSPVTKSFNRGEC | 81.6 % of GpH7-A5/GpH7-B3/GpL16-k0
GpH7-A5/GpH7-B3 variant H268_15Y/GpL16-k0 (antibody, human IgG1, kappa, copies: 1 + 1 + 2) heavy 1: not shown heavy 2: not shown light: DIVMTQSPLSLPVTPGEPASISCQASESLVHSNRNTYLHWYLQKPGQSPQLLIYKVSNRFSGVPDRFSGSGSGTDFTLKISRVEAEDVGVYYCSQNTHVPPTFGQGTKVEIERTVAAPSVFIFPPSDEQLKSGTASVVCLLNNFYPREAKVQWKVDNALQSGNSQESVTEQDSKDSTYSLSSTLTLSKADYEKHKVYACEVTHQGLSSPVTKSFNRGEC | 96.5 % of GpH7-A5/GpH7-B3/GpL16-k0
GpH7-A5/GpH7-B3 variant H268_10E/GpL16-k0 (antibody, human IgG1, kappa, copies: 1 + 1 + 2) heavy 1: not shown heavy 2: not shown light: DIVMTQSPLSLPVTPGEPASISCQASESLVHSNRNTYLHWYLQKPGQSPQLLIYKVSNRFSGVPDRFSGSGSGTDFTLKISRVEAEDVGVYYCSQNTHVPPTFGQGTKVEIERTVAAPSVFIFPPSDEQLKSGTASVVCLLNNFYPREAKVQWKVDNALQSGNSQESVTEQDSKDSTYSLSSTLTLSKADYEKHKVYACEVTHQGLSSPVTKSFNRGEC | 184 % of GpH7-A5/GpH7-B3/GpL16-k0

Continued, values first:

He/Con 3a | Binder
113 % of GpH7-A5/GpH7-B3/GpL16-k0 | GpH7-A5/GpH7-B3 variant H268_19Q/GpL16-k0 (antibody, human IgG1, kappa, copies: 1 + 1 + 2) heavy 1: not shown heavy 2: not shown light: DIVMTQSPLSLPVTPGEPASISCQASESLVHSNRNTYLHWYLQKPGQSPQLLIYKVSNRFSGVPDRFSGSGSGTDFTLKISRVEAEDVGVYYCSQNTHVPPTFGQGTKVEIERTVAAPSVFIFPPSDEQLKSGTASVVCLLNNFYPREAKVQWKVDNALQSGNSQESVTEQDSKDSTYSLSSTLTLSKADYEKHKVYACEVTHQGLSSPVTKSFNRGEC
82 % of GpH7-A5/GpH7-B3/GpL16-k0 | GpH7-A5/GpH7-B3 variant H268_20W/GpL16-k0 (antibody, human IgG1, kappa, copies: 1 + 1 + 2) heavy 1: not shown heavy 2: not shown light: DIVMTQSPLSLPVTPGEPASISCQASESLVHSNRNTYLHWYLQKPGQSPQLLIYKVSNRFSGVPDRFSGSGSGTDFTLKISRVEAEDVGVYYCSQNTHVPPTFGQGTKVEIERTVAAPSVFIFPPSDEQLKSGTASVVCLLNNFYPREAKVQWKVDNALQSGNSQESVTEQDSKDSTYSLSSTLTLSKADYEKHKVYACEVTHQGLSSPVTKSFNRGEC
213 % of GpH7-A5/GpH7-B3/GpL16-k0 | GpH7-A5/GpH7-B3 variant I332_10E/GpL16-k0 (antibody, human IgG1, kappa, copies: 1 + 1 + 2) heavy 1: not shown heavy 2: not shown light: DIVMTQSPLSLPVTPGEPASISCQASESLVHSNRNTYLHWYLQKPGQSPQLLIYKVSNRFSGVPDRFSGSGSGTDFTLKISRVEAEDVGVYYCSQNTHVPPTFGQGTKVEIERTVAAPSVFIFPPSDEQLKSGTASVVCLLNNFYPREAKVQWKVDNALQSGNSQESVTEQDSKDSTYSLSSTLTLSKADYEKHKVYACEVTHQGLSSPVTKSFNRGEC
101 % of GpH7-A5/GpH7-B3/GpL16-k0 | GpH7-A5/GpH7-B3 variant I332_01G/GpL16-k0 (antibody, human IgG1, kappa, copies: 1 + 1 + 2) heavy 1: not shown heavy 2: not shown light: DIVMTQSPLSLPVTPGEPASISCQASESLVHSNRNTYLHWYLQKPGQSPQLLIYKVSNRFSGVPDRFSGSGSGTDFTLKISRVEAEDVGVYYCSQNTHVPPTFGQGTKVEIERTVAAPSVFIFPPSDEQLKSGTASVVCLLNNFYPREAKVQWKVDNALQSGNSQESVTEQDSKDSTYSLSSTLTLSKADYEKHKVYACEVTHQGLSSPVTKSFNRGEC
103 % of GpH7-A5/GpH7-B3/GpL16-k0 | GpH7-A5/GpH7-B3 variant I332_02A/GpL16-k0 (antibody, human IgG1, kappa, copies: 1 + 1 + 2) heavy 1: not shown heavy 2: not shown light: DIVMTQSPLSLPVTPGEPASISCQASESLVHSNRNTYLHWYLQKPGQSPQLLIYKVSNRFSGVPDRFSGSGSGTDFTLKISRVEAEDVGVYYCSQNTHVPPTFGQGTKVEIERTVAAPSVFIFPPSDEQLKSGTASVVCLLNNFYPREAKVQWKVDNALQSGNSQESVTEQDSKDSTYSLSSTLTLSKADYEKHKVYACEVTHQGLSSPVTKSFNRGEC
56.3 % of GpH7-A5/GpH7-B3/GpL16-k0 | GpH7-A5/GpH7-B3 variant I332_05P/GpL16-k0 (antibody, human IgG1, kappa, copies: 1 + 1 + 2) heavy 1: not shown heavy 2: not shown light: DIVMTQSPLSLPVTPGEPASISCQASESLVHSNRNTYLHWYLQKPGQSPQLLIYKVSNRFSGVPDRFSGSGSGTDFTLKISRVEAEDVGVYYCSQNTHVPPTFGQGTKVEIERTVAAPSVFIFPPSDEQLKSGTASVVCLLNNFYPREAKVQWKVDNALQSGNSQESVTEQDSKDSTYSLSSTLTLSKADYEKHKVYACEVTHQGLSSPVTKSFNRGEC
